Data as given in patent publication US20220064286A1 (Genentech, published 2022).

T1: mu TIGIT (target named for 10A7 in the heads of Tables 6 and 7) (mu (mouse), UniProt P86176 29-249, limits assumed)
T1 construct: Only the column head says mu TIGIT; the text describes no mouse TIGIT cells
T1 sequence (looked up): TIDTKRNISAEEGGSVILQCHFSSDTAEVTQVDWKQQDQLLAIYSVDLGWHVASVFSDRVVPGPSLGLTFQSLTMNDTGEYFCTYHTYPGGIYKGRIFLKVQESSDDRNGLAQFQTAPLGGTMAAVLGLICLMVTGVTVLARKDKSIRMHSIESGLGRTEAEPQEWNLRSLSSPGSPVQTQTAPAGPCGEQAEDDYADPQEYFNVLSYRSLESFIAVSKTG

T2: HA-tagged TIGIT (human, UniProt Q495A1 22-244)
T2 sequence: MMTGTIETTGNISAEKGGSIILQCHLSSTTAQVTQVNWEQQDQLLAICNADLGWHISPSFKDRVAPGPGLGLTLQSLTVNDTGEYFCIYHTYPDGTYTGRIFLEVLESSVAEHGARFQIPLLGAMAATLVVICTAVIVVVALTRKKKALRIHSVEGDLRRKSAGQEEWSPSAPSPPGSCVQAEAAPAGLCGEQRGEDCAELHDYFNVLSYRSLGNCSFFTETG

T3: full-length human TIGIT on CHO cells (human, UniProt Q495A1 22-244)
T3 construct: also called CHO-hTIGIT; hu TIGIT
T3 sequence: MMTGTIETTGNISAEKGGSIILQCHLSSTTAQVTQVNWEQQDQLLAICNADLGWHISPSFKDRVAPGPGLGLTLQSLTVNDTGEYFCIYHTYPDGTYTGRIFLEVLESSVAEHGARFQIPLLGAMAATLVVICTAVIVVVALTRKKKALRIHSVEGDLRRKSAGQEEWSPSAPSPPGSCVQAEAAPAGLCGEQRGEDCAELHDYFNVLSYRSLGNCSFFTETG

T4: human TIGIT-AviFlag-biotin (human, UniProt Q495A1 22-141, biotin)
T4 sequence: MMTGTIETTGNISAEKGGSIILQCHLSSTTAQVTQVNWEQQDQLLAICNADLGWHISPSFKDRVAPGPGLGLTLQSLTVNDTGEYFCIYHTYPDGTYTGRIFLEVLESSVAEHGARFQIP

T5: human TIGIT protein (human, UniProt Q495A1 22-141, limits assumed)
T5 construct: Recombinant protein (Genentech) used in ELISA screening and as SPR analyte; also called TIGIT antigen
T5 sequence: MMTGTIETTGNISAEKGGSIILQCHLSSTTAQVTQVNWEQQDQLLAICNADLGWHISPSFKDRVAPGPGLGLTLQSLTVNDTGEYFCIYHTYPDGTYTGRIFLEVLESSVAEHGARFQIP

T6: mouse TIGIT-His (mouse, UniProt P86176 29-148, limits assumed)
T6 sequence (looked up): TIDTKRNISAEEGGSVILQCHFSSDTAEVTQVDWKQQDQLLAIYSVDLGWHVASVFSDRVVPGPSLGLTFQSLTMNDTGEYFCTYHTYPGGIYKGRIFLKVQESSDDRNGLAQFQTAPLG


Key:
[1] = target: T1, mu TIGIT (target named for 10A7 in the …); experiment: FACS, T cell binding (row: Human T cell; column head: mu TIGIT)
How it was run: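 Activated human peripheral blood T cells were stained with each anti-TIGIT antibody and analysed by flow cytometry. Binding was detected with a FITC-labelled anti-human IgG, gated on CD25+CD4+ and CD25+CD8+ cells (LSR-II or LSR-Fortessa, FlowJo). EC50 values come from these titrations.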

[2] = target: T7, cynomolgus TIGIT on CHO cells (cynomolgus monkey, UniProt A0A7N9I9V4 89-312); experiment: FACS blocking assay: labelled PVR-Fc (blocked ligand; text: cyPVR, scheme of FIG. 4A prints hPVR.Fc) on CHO cells expressing cyno TIGIT
T7 construct: whole, on cells; also called CHO-cyTIGIT; cyTIGIT
Description: (§1) These studies were further validated in CHO-TIGIT PVR blocking experiments in which TIGIT-expressing CHO cells were incubated with labeled PVR-Fc fusion protein in the presence of anti-TIGIT antibody or an human IgG1 control (FIG. 4A).

HA-tagged TIGIT = target: T2, HA-tagged TIGIT; experiment: TR-FRET, HA-TIGIT with ST-CD226 on CHO cells; competitor CD226
Excerpt: To test for the ability of the clones to block the TIGIT-CD226 interaction, TR-FRET (Time-resolved Fluorescence Resonance Energy Transfer) was used. First, human SNAP-tagged (ST) CD226 with non-permeant donor and acceptor fluorophores was expressed and labeled using CHO cells. The human ST-CD226 was co-expressed with HA-tagged TIGIT, in the presence or the absence of the OMT- and SD-derived anti-TIGIT antibody clones.

[3] = target: T3, full-length human TIGIT on CHO cells; experiment: FACS, PVR-Fc on CHO-TIGIT cells; competitor PVR-Fc
Description: as §1

[4] = target: T4, human TIGIT-AviFlag-biotin; experiment: Block ELISA Human PVR-Fc:Bio-TIGIT-AviFlag (blocked ligand human PVR-Fc)
Description: (§2) To test for the ability of the clones to block the TIGIT-PVR interaction, a blocking ELISA assay was used. Briefly, recombinant human PVR-Fc fusion protein, cynomolgus monkey PVR-Fc fusion protein, or mouse PVR-Fc fusion protein was coated at 4 μg/ml at 25 μl/well in phosphate-buffered saline (PBS, pH 7.0) onto 384-well Maxisorp microtiter plates (NUNC, Denmark) and incubated overnight at 4° C. The coating solution was then discarded and the plate was blocked using 0.5% bovine serum albumin (BSA) in PBS at 80 μl/well and incubated with gentle agitation for 1 hour. Titration curves of anti-TIGIT and Fab isotype control antibodies were diluted in assay buffer (PBS, 0.5% BSA, 0.05% Tween 20) using 12 serial 2.5-fold dilutions (40000-1.7 ng/mL). […] The plate was then washed 6× with wash buffer and bound human TIGIT-AviFlag-biotin, cyno TIGIT-AviFlag-biotin, or mouse TIGIT-His was detected by adding 25 μl/well of horseradish peroxidase-conjugated streptavidin (1:10000, Amersham, UK) or horseradish peroxidase-conjugated mouse anti-His (1:2500, Qiagen, Germany) diluted in assay buffer. […] Absorbance was read at 450 nm on a […] ASCENT® microtiter plate reader (Thermo Labsystems, Helsinki, Finland). Fit curves were plotted from the resulting optical density values from the ELISA plates and IC50s were calculated using Genedata Screener software (Genedata, Switzerland).

human TIGIT protein = target: T5, human TIGIT protein; experiment: SPR, monovalent affinity
[5] = target: cynomolgus monkey (cyno) TIGIT protein (cynomolgus monkey, UniProt A0A7N9I9V4 89-209); experiment: SPR, monovalent affinity
mouse TIGIT-His = target: T6, mouse TIGIT-His; experiment: Block ELISA Mouse PVR-Fc:TIGIT-His (blocked ligand mouse PVR-Fc)
Description: as §2

T7 sequence (A0A7N9I9V4 entry or part of it): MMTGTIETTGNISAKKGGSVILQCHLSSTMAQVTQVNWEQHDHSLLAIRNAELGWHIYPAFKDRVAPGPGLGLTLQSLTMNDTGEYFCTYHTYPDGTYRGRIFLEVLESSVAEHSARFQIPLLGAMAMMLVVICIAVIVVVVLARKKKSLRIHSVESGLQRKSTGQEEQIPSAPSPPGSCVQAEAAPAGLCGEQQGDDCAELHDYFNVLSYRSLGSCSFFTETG
Chain of cynomolgus monkey (cyno) TIGIT protein (A0A7N9I9V4 entry or part of it): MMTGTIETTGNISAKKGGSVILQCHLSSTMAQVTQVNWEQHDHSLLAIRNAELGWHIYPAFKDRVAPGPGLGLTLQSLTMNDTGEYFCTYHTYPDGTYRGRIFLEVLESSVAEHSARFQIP

| EC50 [1] | IC50 (read off the curve) [2] | IC50 (HA-tagged TIGIT) | IC50 [3] | IC50 [4] | Kd (human TIGIT protein) | Kd [5] | IC50 (mouse TIGIT-His) | Binder |
| --- | --- | --- | --- | --- | --- | --- | --- | --- |
| 0.63 nM | – | – | – | – | – | – | – | 10A7 (antibody, V domains shown) VH: EVQLVESGGGLTQPGKSLKLSCEASGFTFSSFTMHWVRQSPGKGLEWVAFIRSGSGIVFYADAVRGRFTISRDNAKNLLFLQMNDLKSEDTAMYYCARRPLGHNTFDSWGQGTLVTVSS VL: DIVMTQSPSSLAVSPGEKVTMTCKSSQSLYYSGVKENLLAWYQQKPGQSPKLLIYYASIRFTGVPDRFTGSGSGTDYTLTITSVQAEDMGQYFCQQGINNPLTFGDGTKLEIKR |
| – | – | 45 nM | 0.29 nM | 6.9 nM | 0.56 nM | 3.2 nM | > 133 nM | 4.1D3.Q1E (antibody, V domains shown) VH: EVQLQQSGPGLVKPSQTLSLTCAISGDSVSSNSAAWNWIRQSPSRGLEWLGKTYYRFKWYSDYAVSVKGRITINPDTSKNQFSLQLNSVTPEDTAVFYCTRESTTYDLLAGPFDYWGQGTLVTVSS VL: not shown |

Further lines, the binder ahead of its results:

| Binder | EC50 [1] | IC50 (read off the curve) [2] | IC50 (HA-tagged TIGIT) | IC50 [3] | IC50 [4] | Kd (human TIGIT protein) | Kd [5] | IC50 (mouse TIGIT-His) |
| --- | --- | --- | --- | --- | --- | --- | --- | --- |
| 4.1D3 (antibody, V domains shown, OMT rat-derived human antibody; also called 4.1D3.Q1) VH: QVQLQQSGPGLVKPSQTLSLTCAISGDSVSSNSAAWNWIRQSPSRGLEWLGKTYYRFKWYSDYAVSVKGRITINPDTSKNQFSLQLNSVTPEDTAVFYCTRESTTYDLLAGPFDYWGQGTLVTVSS VL: not shown | – | ~0.6 nM | – | – | – | – | – | – |
| 7.4A3.C96S.Q1E (antibody, V domains shown, also called 7.4A3.Q1E.C96S) VH: EVQLVQSGSDLKKPGASVRVSCKASGYTFTSYPMNWVRQAPGHGLEWMGWINTNTGNPTYVQGFTGRFVFSLDTSVNTAYLQISSLKAEDTAVYFCARTGGHTYDSYAFDVWGQGTMVTVSS VL: DIQLTQSPTFLSASVGDRVTITCRASQVISSSLAWYQQNPGKAPKLLIYAASTLQSGVPSRFSGSGSGTEFTLTISSLQPEDFVTYYCQHLHGYPSNFGQGTKVEIK | – | ~0.3 nM | 19.3 nM | 0.38 nM | – | 2.97 nM | 2.01 nM | – |
